The target of this assay is KV4-1 Id proteins. Nature of the assay: ELISA.

B1: mAb clone 12C3 (antibody, V domains shown)
VH: EVKLVESGGGLVQPGGSLSLSCAASGFTYTDYYMNWVRQPPGKALEWLALIRNKANGYTTEYSASLKGRFTISRDNSQSILYLQMNALRAEDSATYYCVRENINYYFDYWGQGTTLTVSS
VL: DIVLTQSPASLAVSLGQRATISCRASESVEYFGASLMQWYQQKSGQPPKLLIRAATNVESGVPARFSGSGSGTDFSLNIHPVEEDDIAMYFCQQSRKVPWTFGGGTKLEIKR
In turn, B1 yielded a KV4-1 Id proteins recognized / tested (of 41 Id proteins) of 35.

The values above are taken from US20070134248A1.
